Columns and labels:
[1] = target: T1, membrane bound mouse 5B6 on transiently transfected 293T cells (full length untagged m5B6, pIRES-Neo) (mouse); test: flow cytometry on transiently transfected live 293T cells, soluble FLAG-tagged protein
T1 construct: also called mouse Clec9A
T1 chain: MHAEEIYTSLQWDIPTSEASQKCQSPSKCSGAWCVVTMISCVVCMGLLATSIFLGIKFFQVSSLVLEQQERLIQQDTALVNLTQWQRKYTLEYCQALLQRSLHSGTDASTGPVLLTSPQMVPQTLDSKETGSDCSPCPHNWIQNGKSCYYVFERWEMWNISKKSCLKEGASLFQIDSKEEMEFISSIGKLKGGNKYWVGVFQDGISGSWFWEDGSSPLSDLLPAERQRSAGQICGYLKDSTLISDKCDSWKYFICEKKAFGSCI
Source text: (§1) Two-three days later, cells were harvested and surface immunofluorescence labeled using either (1) soluble FLAG-tagged biotinylated m5B6, h5B6 and Cire, and detected with Streptavidin PE, or (2) soluble FLAG-tagged 5B6, biotinylated anti-FLAG mAb 9H10, and Streptavidin-PE. Live cells were gated on forward and side scatter, or by propidium iodide exclusion and analysed for their surface binding of soluble 5B6.

[2] = target: T2, membrane bound human 5B6 on transiently transfected 293T cells (full length untagged h5B6, pIRES-Neo) (human, UniProt Q6UXN8 1-241); test: as above
T2 construct: also called human CLEC9A
Source text: as §1

[3] = target: T3, GST protein (control, plasmid control) (UniProt P08515 1-218 = GST); test: pull-down on glutathione beads, anti-FLAG Western blot
T3 construct: also called GST alone; GST control
Method: (§2) Glutathione Sepharose resin coupled with either GST or GST-RNF41 proteins was resuspended in the binding buffer (0.2% NP-40 and 2% glycerol in 20 mM Tris-buffered saline, pH 7.5 containing complete protease inhibitor cocktail mixture (Roche) and 1 mM PMSF) and mixed with 1 μg/m purified FLAG-tagged soluble Clec9A (also in binding buffer) and incubated at 4° C. on a rotating wheel for 2 hours. The beads were washed extensively with the binding buffer to remove unbound proteins. Bound proteins were eluted from the beads by the addition of 2×SDS reducing sample and heated at 92° C. for 5 minutes. The eluted proteins were separated by SDS-PAGE followed by Western blot with anti-FLAG antibody.
(§3) The inventors subcloned and expressed full length RNF41 (RNF41FL), and RNF41 transcript variant 2 (RNF41₇₂₋₃₁₇) as GST-RNF41 fusion proteins in bacterial cells. The fusion proteins were immobilized onto glutathione beads, and incubated with mClec9A-ecto or with the control mClec12A-ecto. mClec9A-ecto directly bound to both GST-RNF41FL and GST-RNF41₇₂₋₃₁₇, but not to GST alone (FIG. 13). […] This confirmed that mClec9A binds specifically to RNF41.

[4] = target: T4, GST-RNF41FL (full length RNF41 as glutathione S-transferase fusion protein) (human, UniProt Q5R7T5 1-317 (Pongo abelii entry)); test: as above
T4 construct: Expressed in BL21 (DE3) E. coli, solubilised with Sarcosyl and immobilised on Glutathione-Sepharose 4B; also called GST-RNF41 fusion protein; not shown: glutathione S-transferase (GST) of a modified pGEX-2T vector (GE Healthcare)
T4 sequence: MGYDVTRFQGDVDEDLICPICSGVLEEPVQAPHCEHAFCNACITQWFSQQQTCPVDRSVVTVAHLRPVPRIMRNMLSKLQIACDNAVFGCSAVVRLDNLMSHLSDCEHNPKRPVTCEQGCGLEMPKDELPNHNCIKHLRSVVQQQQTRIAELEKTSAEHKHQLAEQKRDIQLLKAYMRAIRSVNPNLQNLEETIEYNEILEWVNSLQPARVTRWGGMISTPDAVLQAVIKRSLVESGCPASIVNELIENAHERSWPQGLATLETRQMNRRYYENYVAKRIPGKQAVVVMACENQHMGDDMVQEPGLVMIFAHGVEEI
Method: as §2, §3

[5] = target: T5, GST-RNF41 72-317 (RNF41 transcript variant 2 as glutathione S-transferase fusion protein) (human, UniProt Q5R7T5 72-317 (Pongo abelii entry), N-terminal GST fusion, immobilised on Glutathione-Sepharose beads; carrier not in the letters); test: as above
T5 construct: Expressed in BL21 (DE3) E. coli and immobilised on Glutathione-Sepharose 4B; not shown: GST carrier (glutathione S-transferase of the modified pGEX-2T vector) and any linker at the N end
T5 sequence: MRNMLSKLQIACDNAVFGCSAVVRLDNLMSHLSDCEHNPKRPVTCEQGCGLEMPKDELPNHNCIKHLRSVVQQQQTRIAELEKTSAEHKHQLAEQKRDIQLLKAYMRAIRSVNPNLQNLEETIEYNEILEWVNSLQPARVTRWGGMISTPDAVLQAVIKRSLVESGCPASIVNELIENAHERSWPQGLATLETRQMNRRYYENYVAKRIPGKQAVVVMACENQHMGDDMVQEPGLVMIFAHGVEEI
Method: as §2, §3

[6] = target: T6, Spectrin (purified from human erythrocytes, Sigma, #S3644) (human, UniProt P02549 1-2419; P11277 2-2137); test: ELISA, spectrin coated, biotinylated soluble protein, SA-HRP
T6 construct: mature; A bought native preparation; also called purified spectrin
Method: ELISA plates (Costar, Broadway, Cambridge, UK) were coated overnight at 4° C. with […] of Spectrin (purified from human erythrocytes, Sigma, #S3644) or Actin (Sigma). Unbound proteins were washed away (PBS, 0.05% Tween-20), and the ELISA plates blocked with PBS, 1% BSA. Serially diluted biotinylated purified mClec9A-ecto, mClec9A-CTLD and Cire soluble proteins were plated (PBS, 1% BSA) and incubated at 4° C. overnight. Bound soluble proteins were detected using Streptavidin-HRP and visualised using ABTS.

[7] = target: T7, RNF41 isoform encoded by RNF41 transcript variant 2 (Accession number NM-194358), GST-tagged, on the … (human, UniProt Q5R7T5 72-317 (Pongo abelii entry)); test: human protein microarray (ProtoArray v4.1), biotinylated probe, Streptavidin-Alexa Fluor647
T7 construct: A bought array (Invitrogen); also called isoforms of RNF41; not shown: GST tag of the array protein
T7 sequence: T5 sequence
Method: Biotinylated purified soluble mClec9A-ecto and Cire (control) were diluted to 50 μg/ml in Casein Washing Buffer (Invitrogen) and hybridised to Human protein microarrays using the “ProtoArray Human Protein Microarray v4.1 Protein-Protein Interaction (PPI) kit for biotinylated proteins” (Invitrogen, #PAH05241011) as per manufacturer's instructions. Binding of the biotinylated proteins was detected using Streptavidin-Alexa Fluor647, and images acquired using a fluorescence microarray scanner (GenePix4000B scanner, Axon Instruments). Positive interactions were identified using the ProtoArray Prospector software (Invitrogen).

T2 sequence (Q6UXN8 whole entry): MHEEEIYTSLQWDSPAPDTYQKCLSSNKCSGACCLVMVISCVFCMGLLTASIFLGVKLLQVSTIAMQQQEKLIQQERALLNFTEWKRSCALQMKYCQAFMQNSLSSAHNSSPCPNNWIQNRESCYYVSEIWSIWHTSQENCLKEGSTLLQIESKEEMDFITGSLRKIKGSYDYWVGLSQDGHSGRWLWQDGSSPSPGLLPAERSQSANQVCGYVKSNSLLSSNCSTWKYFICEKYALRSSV
T3 sequence (P08515 whole entry): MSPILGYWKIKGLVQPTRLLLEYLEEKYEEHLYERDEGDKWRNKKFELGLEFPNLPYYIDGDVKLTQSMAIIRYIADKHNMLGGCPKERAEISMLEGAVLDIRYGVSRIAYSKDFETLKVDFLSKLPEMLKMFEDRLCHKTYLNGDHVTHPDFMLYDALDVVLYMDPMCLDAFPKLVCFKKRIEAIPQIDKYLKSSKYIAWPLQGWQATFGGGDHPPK

B1: hCLEC9A-ecto (tagged soluble ectodomain human Clec9A; stalk and CTLD) (receptor)
chain: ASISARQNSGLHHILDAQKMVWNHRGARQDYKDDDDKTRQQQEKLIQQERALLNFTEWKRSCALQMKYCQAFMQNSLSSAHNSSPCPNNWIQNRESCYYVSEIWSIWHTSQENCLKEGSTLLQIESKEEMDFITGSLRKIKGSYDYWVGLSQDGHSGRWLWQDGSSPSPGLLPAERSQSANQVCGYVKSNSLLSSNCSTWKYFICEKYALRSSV
notes: also called soluble FLAG-tagged h5B6; soluble human 5B6
B1: binds [1]; binds [2].

B2: mClec9A-ecto (tagged soluble ectodomain mouse Clec9A; stalk and CTLD) (receptor)
chain: ASISARQNSGLHHILDAQKMVWNHRGARQDYKDDDDKTREQQERLIQQDTALVNLTQWQRKYTLEYCQALLQRSLHSGTDASTGPVLLTSPQMVPQTLDSKETGSDCSPCPHNWIQNGKSCYYVFERWEMWNISKKSCLKEGASLFQIDSKEEMEFISSIGKLKGGNKYWVGVFQDGISGSWFWEDGSSPLSDLLPAERQRSAGQICGYLKDSTLISDKCDSWKYFICEKKAFGSCI
modifications: enzymatically biotinylated with BirA at the biotinylation consensus sequence where the filing says 'biotinylated' (ELISA, protein microarray); unbiotinylated FLAG-tagged protein in the pull-down and in FIG. 6
notes: also called soluble FLAG-tagged m5B6; soluble mouse 5B6
B2: no binding (tested: 1 µg/m) [3]; binds [1]; binds [2].

B3: mClec12A-ecto (soluble FLAG-tagged mouse Clec12A, control) (receptor, not shown: small tags and cut ends)
chain (part 1 of 2): NSGLHHILDAQKMVWNHR
chain (part 2 of 2): YTTLATEMIKSNQLQRAKEELQENVFLQLKHNLNSSKKIKNLSAMLQSTATQLCRELYSKEPEHKCKPCPKGSEWYKDSCYSQLNQYGTWQESVMACSARNASLLKVKNKDVLEFIKYKKLRYFWLALLPRKDRTQYPLSEKMFLSEESERSTDDIDKKYCGYIDRVNVYYTYCTDENNIICEETASKVQLESVLNGLPEDSR
notes: extracellular domain; Control lectin
B3: no binding (tested: 1 µg/m) [4]; no binding (tested: 1 µg/m) [5].

B4: Cire-ecto (soluble FLAG-tagged C-type lectin Cire, control) (receptor, mouse, not shown: small tags and cut ends)
chain (part 1 of 2): NSGLHHILDAQKMVWNHR
chain (part 2 of 2): VKVYKIPSSQEENNQMNVYQELTQLKAGVDRLCRSCPWDWTHFQGSCYFFSVAQKSWNDSATACHNVGAQLVVIKSDEEQNFLQQTSKKRGYTWMGLIDMSKESTWYWVDGSPLTLSFMKYWSKGEPNNLGEEDCAEFRDDGWNDTKCTNKKFWICKKLSTSCPSK
modifications: biotinylated with BirA where the filing says 'biotinylated' (ELISA, microarray)
notes: extracellular domain; Control lectin; The construct is described only as similar to the Clec9A constructs; also called mouse Cire/mDCSign; biotinylated Cire-ecto
B4: no binding [6]; no binding (tested: 50 µg/ml) [7].

From US20120039806A1 (BURNET INSTITUTE, published 2012)
